Test [1] addresses T1, neuropeptide Y2 receptor (SK-N-BE cell membranes), P49146.
T1 chain: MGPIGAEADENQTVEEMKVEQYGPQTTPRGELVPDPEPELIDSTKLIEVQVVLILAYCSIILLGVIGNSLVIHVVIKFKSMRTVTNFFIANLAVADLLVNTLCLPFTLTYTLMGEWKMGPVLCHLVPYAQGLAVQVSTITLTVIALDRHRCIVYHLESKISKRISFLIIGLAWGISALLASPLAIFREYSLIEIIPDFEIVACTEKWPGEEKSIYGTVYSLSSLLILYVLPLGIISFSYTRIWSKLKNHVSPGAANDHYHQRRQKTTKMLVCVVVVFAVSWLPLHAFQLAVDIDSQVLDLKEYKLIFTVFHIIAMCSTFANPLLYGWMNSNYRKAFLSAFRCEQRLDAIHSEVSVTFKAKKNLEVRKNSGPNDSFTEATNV
Briefly: [125I]-human PYY displacement, SK-N-BE membranes.

A further test deals with calcitonin receptor. Briefly: cell-based or functional assay.
Test [2] addresses amylin receptors (rat nucleus accumbens membranes) (rat). Nature of the test: 125I-amylin displacement, rat nucleus accumbens membranes.
Test [3] deals with T2, CGRP receptors (SK-N-MC cell membranes), Q16602.
T2 chain 1: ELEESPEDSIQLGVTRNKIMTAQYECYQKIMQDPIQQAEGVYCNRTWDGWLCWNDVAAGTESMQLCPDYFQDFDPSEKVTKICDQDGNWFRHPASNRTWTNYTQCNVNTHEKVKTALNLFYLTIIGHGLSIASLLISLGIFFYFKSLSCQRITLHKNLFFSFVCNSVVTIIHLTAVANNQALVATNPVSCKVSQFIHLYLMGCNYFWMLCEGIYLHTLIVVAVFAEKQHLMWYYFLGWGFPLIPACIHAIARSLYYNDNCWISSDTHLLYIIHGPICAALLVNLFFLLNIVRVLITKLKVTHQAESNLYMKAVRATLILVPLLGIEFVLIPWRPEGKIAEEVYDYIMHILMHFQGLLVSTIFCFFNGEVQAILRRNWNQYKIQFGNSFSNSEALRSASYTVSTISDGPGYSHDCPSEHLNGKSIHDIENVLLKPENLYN
T2 chain 2: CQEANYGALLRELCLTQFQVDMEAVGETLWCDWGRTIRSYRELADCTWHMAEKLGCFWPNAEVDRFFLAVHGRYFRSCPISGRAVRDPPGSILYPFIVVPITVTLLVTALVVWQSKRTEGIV
Briefly: 125I-hCGRP displacement, SK-N-MC membranes.

The target in test [4] is GLP-1/GIP/CT (receptors read by the GLP-1/GIP/CT cyclase assay). Briefly: cell-based or functional assay.
Test [5] addresses T3, amylin receptors (rat nucleus accumbens membranes) (rat).
T3 chain 1: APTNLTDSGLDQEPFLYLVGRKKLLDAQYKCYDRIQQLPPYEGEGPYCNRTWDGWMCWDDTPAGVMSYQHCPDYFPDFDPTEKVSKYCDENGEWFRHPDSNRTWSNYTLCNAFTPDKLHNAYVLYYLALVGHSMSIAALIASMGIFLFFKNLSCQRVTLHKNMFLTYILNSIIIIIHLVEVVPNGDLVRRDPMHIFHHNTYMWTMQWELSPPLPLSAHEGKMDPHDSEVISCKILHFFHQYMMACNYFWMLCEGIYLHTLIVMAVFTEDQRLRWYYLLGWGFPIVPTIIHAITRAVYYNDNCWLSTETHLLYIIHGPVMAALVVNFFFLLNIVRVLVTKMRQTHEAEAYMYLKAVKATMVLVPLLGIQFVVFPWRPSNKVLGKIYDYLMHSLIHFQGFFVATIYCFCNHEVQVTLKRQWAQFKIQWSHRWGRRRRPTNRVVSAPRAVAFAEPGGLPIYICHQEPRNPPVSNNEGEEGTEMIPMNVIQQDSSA
T3 chain 2: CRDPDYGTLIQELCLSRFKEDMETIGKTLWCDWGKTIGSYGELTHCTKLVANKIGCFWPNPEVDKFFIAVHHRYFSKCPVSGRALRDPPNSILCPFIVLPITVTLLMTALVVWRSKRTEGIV
Briefly: amylin receptor binding assay.

Sequence of calcitonin receptor (P30988 whole entry): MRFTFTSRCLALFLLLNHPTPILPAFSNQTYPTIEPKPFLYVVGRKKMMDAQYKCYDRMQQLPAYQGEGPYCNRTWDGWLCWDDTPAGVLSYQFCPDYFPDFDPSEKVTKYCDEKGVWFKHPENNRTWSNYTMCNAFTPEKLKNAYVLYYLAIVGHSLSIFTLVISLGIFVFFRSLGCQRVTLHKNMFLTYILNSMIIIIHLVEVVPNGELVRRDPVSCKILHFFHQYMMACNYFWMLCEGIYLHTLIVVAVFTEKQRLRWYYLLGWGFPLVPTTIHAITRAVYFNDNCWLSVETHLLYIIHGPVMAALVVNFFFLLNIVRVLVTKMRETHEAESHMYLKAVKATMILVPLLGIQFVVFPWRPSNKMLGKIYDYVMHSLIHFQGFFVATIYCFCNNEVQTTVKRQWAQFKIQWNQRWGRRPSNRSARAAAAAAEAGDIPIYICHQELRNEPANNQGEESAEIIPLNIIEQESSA

B1: [#Suc-(bAla)-PYY-(3-36), amide] [#NH-Des-Lys1-Rat Amylin, amide] (peptide)
chain 1: not shown
chain 2: CNTATCATQRLANFLVRSSNNLGPVLPPTNVGSNTY
modifications: not checked
As for B1, the Receptor Binding in test [1] was determined as 0.39. In addition, the Receptor Activation: CT cyclase in the test with calcitonin receptor amounted to 645.

B2: Rat amylin (peptide)
peptide: KCNTATCATQRLANFLVRSSNNLGPVLPPTNVGSNTY
modifications: not checked
B2: the figures for the Receptor Binding in test [2] and in test [3] were 0.05 and 21, respectively. In addition, the Receptor Activation: CT cyclase with calcitonin receptor came to 326. Also, in test [4], the Receptor Activation: GLP-1/GIP/CT cyclase worked out at 5.

B3: [#Mal-Bu-(bAla)-PYY-(3-36), amide] [#S-Prp-(bAla)-Compound 10, amide] (peptide)
chain 1: not shown
chain 2: […]
modifications: not checked
In test [1], B3 registered a Receptor Binding of 0.2.

B4: 27(p-CH2SO3)-PheCCK8(26-33),G,K,R,15Glu,hAmy(1-17),18Arg,Sct(18-26),hAmy(32-37) (peptide)
peptide: DFMGWMDFGKRKCNTATCATQRLANELVRLQTYPRTNVGSNTY
modifications: not checked
In turn, B4 gave a Receptor Binding in test [3] of 4.4. In test [4], this molecule yielded a Receptor Activation: GLP-1/GIP/CT cyclase of 1000.

B5: DF(P-CH2SO3)… … (peptide)
peptide: DFMGWMDFGKRKCNTATCATQRLANELVRLQTYPRTNVGSNTY
modifications: not checked
Turning to B5, the half-inhibitory concentration (IC50) in test [5] came out at 0.083 nM.

The values are drawn from US20090286723A1.
